# Molecular target: human fibrinogen (UniProt P02671)
Substance,"fibrin gel formation by primed hMSCs (confocal microscopy, Alexa-594-tagged fibrinogen)","fibrin formation, absorbance at 600 nm"
[cThrombin][S],[cThrombin][S] bound to cell membranes was able to cleave fibrinogen to form a fibrin gel,–
cationised thrombin,–,"During cationisation, the activity of thrombin was retained up to 120 minutes of cationisation, although the activity was gradually decreased with increased cationisation duration"

# Reference: patent US20210060174
